Assays:
Test in all cases: ProtoArray, GST-treated control array;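 note: human protein microarray (about 9500 recombinant proteins) incubated overnight with GST alone plus SAM cofactor as the negative control for G9a SET domain methylation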
[1] = target: C10orf83-chromosome 10 open reading frame 83 (C10orf83) (human, UniProt Q8NDC4 1-146, limits assumed)
[2] = target: T1, GNPTAB-N-acetylglucosamine-1-phosphate transferase, alpha and beta subunits (GNPTAB) (human, UniProt Q3T906 1-1256, limits assumed)
T1 sequence (looked up): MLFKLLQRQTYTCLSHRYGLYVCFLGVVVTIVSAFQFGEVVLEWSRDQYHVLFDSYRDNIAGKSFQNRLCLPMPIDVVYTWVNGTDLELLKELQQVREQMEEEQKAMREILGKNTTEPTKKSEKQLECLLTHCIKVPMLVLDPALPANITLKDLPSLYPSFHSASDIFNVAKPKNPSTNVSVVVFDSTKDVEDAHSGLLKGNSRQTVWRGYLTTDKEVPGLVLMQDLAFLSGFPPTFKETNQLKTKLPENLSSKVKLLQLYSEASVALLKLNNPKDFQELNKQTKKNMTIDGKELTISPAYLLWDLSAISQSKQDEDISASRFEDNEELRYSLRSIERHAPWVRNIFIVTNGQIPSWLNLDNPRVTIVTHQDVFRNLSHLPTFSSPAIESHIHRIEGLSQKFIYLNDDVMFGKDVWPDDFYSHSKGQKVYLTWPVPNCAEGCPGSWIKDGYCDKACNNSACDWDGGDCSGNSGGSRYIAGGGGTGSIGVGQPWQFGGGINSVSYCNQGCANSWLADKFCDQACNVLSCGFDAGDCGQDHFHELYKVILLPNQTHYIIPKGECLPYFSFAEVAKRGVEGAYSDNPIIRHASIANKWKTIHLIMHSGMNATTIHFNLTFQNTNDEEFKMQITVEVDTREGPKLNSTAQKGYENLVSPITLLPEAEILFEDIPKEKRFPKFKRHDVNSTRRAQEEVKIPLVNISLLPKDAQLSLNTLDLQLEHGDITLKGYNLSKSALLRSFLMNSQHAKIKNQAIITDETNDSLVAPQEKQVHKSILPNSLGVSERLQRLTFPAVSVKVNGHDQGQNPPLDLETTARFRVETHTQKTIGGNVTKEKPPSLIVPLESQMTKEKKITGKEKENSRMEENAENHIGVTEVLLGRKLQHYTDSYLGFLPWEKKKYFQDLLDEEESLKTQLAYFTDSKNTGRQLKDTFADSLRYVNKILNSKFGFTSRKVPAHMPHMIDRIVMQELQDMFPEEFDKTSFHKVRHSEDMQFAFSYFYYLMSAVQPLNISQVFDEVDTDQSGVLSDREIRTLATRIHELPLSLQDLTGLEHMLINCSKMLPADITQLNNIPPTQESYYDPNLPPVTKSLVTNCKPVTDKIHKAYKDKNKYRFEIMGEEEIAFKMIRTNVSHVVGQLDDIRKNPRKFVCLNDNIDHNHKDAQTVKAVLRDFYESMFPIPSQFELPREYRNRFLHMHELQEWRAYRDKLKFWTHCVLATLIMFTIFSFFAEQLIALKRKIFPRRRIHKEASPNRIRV

[3] = target: CA13-carbonic anhydrase XIII (CA13) (human, UniProt Q8N1Q1 1-262)
[4] = target: T2, CUTC-cutC copper transporter homolog (E. coli) (CUTC) (human, UniProt Q9NTM9 1-273)
T2 sequence (looked up): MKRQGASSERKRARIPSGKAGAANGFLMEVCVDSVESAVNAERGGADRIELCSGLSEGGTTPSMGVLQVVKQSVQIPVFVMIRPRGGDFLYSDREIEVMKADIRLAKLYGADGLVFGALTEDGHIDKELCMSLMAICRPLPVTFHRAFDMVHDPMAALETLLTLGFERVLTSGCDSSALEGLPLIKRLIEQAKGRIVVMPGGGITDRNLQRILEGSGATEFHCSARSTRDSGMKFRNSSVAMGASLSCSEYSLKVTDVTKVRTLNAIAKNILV

[5] = target: T3, BHMT-betaine-homocysteine methyltransferase (BHMT) (human, UniProt Q93088 1-406)
T3 sequence (looked up): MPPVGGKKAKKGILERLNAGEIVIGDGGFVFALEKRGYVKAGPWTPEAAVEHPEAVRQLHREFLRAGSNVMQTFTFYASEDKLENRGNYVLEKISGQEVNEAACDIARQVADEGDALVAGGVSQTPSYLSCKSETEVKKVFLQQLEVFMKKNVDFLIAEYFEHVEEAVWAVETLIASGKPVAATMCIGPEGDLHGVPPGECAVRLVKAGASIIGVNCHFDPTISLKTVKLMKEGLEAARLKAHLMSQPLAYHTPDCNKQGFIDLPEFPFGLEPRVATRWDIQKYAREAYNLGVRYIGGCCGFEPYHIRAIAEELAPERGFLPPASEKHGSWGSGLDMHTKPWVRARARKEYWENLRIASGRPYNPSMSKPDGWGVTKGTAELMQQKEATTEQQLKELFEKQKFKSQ

[6] = target: LOC145788-PREDICTED: Homo sapiens hypothetical LOC145788 (LOC145788) (human)
[7] = target: FTL-ferritin, light polypeptide (FTL) (human, UniProt P02792 1-175)
[8] = target: T4, SSR4-signal sequence receptor, delta (translocon-associated protein delta) (SSR4) (human, UniProt P51571 24-173, limits assumed)
T4 sequence (looked up): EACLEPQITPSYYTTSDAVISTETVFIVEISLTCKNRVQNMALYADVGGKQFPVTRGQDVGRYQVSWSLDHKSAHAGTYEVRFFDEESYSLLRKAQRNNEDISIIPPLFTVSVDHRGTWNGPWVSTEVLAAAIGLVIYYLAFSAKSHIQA

[9] = target: T5, GAL-galanin prepropeptide (GAL) (human, UniProt P22466 1-123, limits assumed)
T5 sequence (looked up): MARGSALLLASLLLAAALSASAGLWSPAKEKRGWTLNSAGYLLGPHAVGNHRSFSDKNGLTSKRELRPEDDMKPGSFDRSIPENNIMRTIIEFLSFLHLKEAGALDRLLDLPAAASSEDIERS

C10orf83-chromosome 10 open reading frame 83 (C10orf83), sequence (Q8NDC4 whole entry): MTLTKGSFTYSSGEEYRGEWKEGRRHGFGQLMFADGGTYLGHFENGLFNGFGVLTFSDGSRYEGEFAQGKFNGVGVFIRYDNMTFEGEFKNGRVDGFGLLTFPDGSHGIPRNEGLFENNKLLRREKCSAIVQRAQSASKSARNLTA
CA13-carbonic anhydrase XIII (CA13), sequence (Q8N1Q1 whole entry): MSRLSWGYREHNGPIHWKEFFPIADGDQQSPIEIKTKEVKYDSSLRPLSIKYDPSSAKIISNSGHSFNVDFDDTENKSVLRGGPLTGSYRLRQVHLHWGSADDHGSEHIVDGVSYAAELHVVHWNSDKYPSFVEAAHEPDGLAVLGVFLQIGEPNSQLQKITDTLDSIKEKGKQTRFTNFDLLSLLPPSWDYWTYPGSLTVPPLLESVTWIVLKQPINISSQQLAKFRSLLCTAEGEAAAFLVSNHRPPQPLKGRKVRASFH
FTL-ferritin, light polypeptide (FTL), sequence (P02792 whole entry): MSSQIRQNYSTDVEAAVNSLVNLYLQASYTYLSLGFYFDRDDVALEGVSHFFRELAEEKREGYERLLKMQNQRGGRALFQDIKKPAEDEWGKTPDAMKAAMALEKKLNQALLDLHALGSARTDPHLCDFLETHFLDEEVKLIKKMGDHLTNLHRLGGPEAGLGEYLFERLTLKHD

- GST Average SNR [1]: 0.742
- GST Average SNR [2]: 1.15
- GST Average SNR [3]: 0.728
- GST Average SNR [4]: 0.667
- GST Average SNR [5]: 1.44
- GST Average SNR [6]: 0.224
- GST Average SNR [7]: 0.717
- GST Average SNR [8]: 1.33
- GST Average SNR [9]: -0.0625
B1: 3× Flag-3×MBT (designed binder)
chain: EEWSSSQPATGEKKECWSWESYLEEQKAITAPVSLFQDSQAVTHNKNGFKLGMKLEGIDPQHPSMYFILTVAEVCGYRLRLHFDGYSECHDFWVNANSPDIHPAGWFEKTGHKLQPPKGYKEEEFSWSQYLRSTRAQAAPKHLFVSQSHSPPPLGFQVGMKLEAVDRMNPSLVCVASVTDVVDSRFLVHFDNWDDTYDYWCDPSSPYIHPVGWCQKQGKPLTPPQDYPDPDNFCWEKYLEETGASAVPTWAFKVRPPHSFLVNMKLEAVDRRNPALIRVASVEDVEDHRIKIHFDGWSHGYDFWIDADHPDIHPAGWCSKTGHPLQPPLGPREPSSASPGG
notes: also called Flag-tagged 3×MBT; 3xFlag-3xMBT; not shown: made by PreScission cleavage of GST-3× Flag-3×MBT

Reference: US20140274782A1 (Stanford University, published 2014)
